The record followed here is IntAct's records for PubMed 21858148.

For assay [1], the target named is apc_human APC (UniProt P25054).
For assay [2], the target named is apc_human APC (UniProt P25054). This is another data set of the same source.

Sequence of apc_human APC (P25054 whole entry): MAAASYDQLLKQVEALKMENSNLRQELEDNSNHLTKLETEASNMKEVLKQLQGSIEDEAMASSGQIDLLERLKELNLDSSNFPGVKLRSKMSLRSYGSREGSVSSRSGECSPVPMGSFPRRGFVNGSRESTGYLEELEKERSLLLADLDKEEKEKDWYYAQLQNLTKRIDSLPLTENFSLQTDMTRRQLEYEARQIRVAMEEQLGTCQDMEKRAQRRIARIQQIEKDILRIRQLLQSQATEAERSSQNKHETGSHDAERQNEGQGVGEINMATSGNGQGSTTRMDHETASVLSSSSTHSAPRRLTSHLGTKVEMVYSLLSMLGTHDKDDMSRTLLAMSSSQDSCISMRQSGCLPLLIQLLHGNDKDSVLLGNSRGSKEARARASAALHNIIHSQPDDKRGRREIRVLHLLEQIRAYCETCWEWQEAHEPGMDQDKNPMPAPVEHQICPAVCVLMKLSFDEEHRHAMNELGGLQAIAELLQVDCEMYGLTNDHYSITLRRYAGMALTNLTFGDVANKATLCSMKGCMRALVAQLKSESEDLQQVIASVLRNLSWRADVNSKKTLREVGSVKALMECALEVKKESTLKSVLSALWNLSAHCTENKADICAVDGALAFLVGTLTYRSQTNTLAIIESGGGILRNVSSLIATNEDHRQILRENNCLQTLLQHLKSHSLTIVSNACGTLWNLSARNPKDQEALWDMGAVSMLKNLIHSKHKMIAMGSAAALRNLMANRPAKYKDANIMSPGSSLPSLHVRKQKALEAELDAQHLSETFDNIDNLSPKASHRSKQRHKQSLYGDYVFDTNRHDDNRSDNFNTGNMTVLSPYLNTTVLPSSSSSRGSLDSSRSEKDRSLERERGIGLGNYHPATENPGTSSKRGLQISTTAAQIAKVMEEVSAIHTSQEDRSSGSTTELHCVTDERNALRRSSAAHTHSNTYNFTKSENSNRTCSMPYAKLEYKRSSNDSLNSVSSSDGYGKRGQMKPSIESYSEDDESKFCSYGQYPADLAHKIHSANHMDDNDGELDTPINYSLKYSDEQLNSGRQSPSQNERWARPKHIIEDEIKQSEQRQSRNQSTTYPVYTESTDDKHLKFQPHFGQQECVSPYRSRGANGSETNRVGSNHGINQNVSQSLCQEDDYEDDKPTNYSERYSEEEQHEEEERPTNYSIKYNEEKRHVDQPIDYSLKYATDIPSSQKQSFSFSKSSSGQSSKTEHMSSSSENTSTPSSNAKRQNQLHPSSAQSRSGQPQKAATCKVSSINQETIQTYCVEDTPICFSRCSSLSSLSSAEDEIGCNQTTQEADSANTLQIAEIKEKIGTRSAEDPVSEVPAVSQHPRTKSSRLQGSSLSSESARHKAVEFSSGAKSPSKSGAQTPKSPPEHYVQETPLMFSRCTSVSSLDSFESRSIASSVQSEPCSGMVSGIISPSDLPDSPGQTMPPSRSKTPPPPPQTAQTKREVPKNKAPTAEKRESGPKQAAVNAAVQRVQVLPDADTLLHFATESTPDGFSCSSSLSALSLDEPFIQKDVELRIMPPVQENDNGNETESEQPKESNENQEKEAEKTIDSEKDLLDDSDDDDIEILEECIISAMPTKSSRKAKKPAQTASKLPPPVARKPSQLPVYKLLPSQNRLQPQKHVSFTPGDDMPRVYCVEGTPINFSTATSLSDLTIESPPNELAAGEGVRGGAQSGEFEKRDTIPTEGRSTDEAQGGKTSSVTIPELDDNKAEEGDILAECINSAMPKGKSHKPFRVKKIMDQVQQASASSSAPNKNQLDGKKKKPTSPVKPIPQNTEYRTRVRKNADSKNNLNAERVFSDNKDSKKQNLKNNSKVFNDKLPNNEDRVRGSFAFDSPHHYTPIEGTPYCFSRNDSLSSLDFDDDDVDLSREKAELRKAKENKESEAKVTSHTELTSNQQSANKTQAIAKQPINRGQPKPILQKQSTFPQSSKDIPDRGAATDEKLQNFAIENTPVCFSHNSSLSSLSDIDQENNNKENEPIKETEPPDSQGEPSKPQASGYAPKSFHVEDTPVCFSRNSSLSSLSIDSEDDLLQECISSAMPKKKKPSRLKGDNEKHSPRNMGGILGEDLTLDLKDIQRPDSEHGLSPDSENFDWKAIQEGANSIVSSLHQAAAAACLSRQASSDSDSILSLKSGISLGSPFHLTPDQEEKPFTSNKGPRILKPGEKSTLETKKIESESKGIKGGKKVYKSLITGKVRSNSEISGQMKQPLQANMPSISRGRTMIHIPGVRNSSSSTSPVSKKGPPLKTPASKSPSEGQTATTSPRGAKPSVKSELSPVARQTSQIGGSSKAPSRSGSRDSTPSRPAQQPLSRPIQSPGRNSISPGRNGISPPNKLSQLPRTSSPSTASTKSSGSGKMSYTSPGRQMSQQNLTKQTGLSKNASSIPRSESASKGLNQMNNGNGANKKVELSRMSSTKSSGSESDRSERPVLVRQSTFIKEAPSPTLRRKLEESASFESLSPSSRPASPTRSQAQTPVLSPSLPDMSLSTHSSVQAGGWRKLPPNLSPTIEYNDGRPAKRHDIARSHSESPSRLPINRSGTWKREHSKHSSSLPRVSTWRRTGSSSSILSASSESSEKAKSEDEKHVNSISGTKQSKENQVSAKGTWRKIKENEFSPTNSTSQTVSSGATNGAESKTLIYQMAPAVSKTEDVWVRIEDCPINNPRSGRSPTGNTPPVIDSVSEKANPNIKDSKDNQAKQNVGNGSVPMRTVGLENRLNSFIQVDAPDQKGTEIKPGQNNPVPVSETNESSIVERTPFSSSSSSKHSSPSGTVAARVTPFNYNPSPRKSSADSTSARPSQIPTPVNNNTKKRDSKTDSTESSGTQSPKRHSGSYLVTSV
Sequence of Disks large homolog 1 (Homo sapiens) (Q12959 whole entry, looked up, stated change not applied): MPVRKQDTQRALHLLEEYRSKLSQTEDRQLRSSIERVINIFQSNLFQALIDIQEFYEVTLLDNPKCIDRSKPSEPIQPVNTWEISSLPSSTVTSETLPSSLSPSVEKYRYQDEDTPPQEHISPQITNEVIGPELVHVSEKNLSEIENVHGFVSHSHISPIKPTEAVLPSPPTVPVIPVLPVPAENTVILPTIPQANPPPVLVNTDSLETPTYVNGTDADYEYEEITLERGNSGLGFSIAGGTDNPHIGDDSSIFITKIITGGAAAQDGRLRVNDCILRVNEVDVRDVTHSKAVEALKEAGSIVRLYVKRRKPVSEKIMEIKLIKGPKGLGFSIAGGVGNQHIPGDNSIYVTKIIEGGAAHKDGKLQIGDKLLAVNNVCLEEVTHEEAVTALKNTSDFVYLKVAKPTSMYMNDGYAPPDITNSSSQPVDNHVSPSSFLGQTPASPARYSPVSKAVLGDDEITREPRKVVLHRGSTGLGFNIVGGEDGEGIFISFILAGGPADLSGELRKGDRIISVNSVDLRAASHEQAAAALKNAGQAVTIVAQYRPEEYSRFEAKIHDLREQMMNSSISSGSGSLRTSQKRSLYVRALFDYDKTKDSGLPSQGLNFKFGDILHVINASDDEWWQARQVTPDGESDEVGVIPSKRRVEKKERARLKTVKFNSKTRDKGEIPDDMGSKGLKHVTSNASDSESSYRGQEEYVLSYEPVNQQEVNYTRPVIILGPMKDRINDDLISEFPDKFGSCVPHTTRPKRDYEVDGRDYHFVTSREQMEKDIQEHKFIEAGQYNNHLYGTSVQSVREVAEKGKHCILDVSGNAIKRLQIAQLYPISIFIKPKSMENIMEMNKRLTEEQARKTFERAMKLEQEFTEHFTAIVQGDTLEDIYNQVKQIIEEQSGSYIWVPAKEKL

In the case of “Disks large homolog 1 (Homo sapiens) (from UniProt Q12959) Q340P”, the “effect of a mutation on the interaction” value with apc_human APC [1] is listed as “disrupting interaction strength”; with apc_human APC [2] it was “decreasing interaction strength”.
